According to patent US20220112288A1 (published 2022):
Substitutions are numbered along the chain they refer to.

B1: CD8B248 (antibody, human IgG1, kappa, V domains shown)
VH: EVQLQQSGAELARPGASVKMSCKASGYTFTTYTMHWVKQRPGQGLEWIGYINPSSGYTKYNQKFTDKATLTADKSSSTAYMQLSSLTSEDSAVYYCARLWAYWGQGTLVTVSA
VL: DVVMTQTPLSLPVSLGDQASISCRSSQSLVHSSGNTYLHWYLQKPGQSPKLLIYKGSNRFSGVSDRFSGSGSGTDFTLKISRVEAEDLGVYFCSQSTHVPFTFGSGTKLEMKR
notes: Full-length human IgG1, kappa
B2: CD8B254 (antibody, human IgG1, kappa, V domains shown)
VH: EVQLQQSGAELVKPGASVKMSCKTSGYTFSSYWITWVKQRPGQGLEWVGDIYPGSGSTNYNEKFKSKAALTVDTSSSTAFMQLNSLTSEDSAVYYCARESITTRITPFDHWGQGTTLTVSS
VL: B1 VL with M111I
notes: Full-length human IgG1, kappa
B3: CD8B311 (antibody, human IgG1, kappa, V domains shown)
VH: QVQLKESGPELVKPGASVKLSCKASGYTFTSYWMHWVKQRPGQGLEWIGMIHPNSGSTNYNEKFKSKATLTVDKSSSTAYMQLSSLTSEDSAVYYCARCGYDGAWFAYWGQGTSVTVSS
VL: DIQMTQTTSSLSASLGDRVTISCSASQGISNCLNWYQQKPDGTVKLLIHYTSSLHSGVPSRFSGGGSGTHYSLTISNLEPEDIATYYCQQYSKVPYTFGSGTKLEIKR
notes: Full-length human IgG1, kappa
B4: CD8B340 (antibody, human IgG1, kappa, V domains shown)
VH: QVQLQQPGAELVKPGASVRLSCKASGYTFTNYWMQWVQQRPGQGLEWIGEIDPSDTFTNYNQNFKDKATLTVDTSSSTAYLQLSSLTSEDSAVYYCARGDWDRDWYFDVWGTGTLVTVSA
VL: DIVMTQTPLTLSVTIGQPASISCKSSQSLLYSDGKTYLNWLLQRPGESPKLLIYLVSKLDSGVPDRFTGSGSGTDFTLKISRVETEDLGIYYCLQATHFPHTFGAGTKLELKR
notes: Full-length human IgG1, kappa
B5: CD8B245 (antibody, human IgG1, kappa, V domains shown)
VH: EFQLQQSGGGLVQPGGSLSLSCAAPGFTFTDYYMSWVRQSPGKALEWLALSRNKGNGYTTEYSASVKGRFTISRDNSQSILYLQMNVLRAEDSATYYCARTVTGTLFYYALDYWGQGTTVTVSS
VL: DIQMTQSPASLSASVGETVTITCRASENIYSYLAWYQQKQGKSPQFLVYNAKTLAAGVPSRFSGSGSGTQFSLKINRLQPEDFGTYYCQHHYGTPLTFGDGTRLEIKR
notes: Full-length human IgG1, kappa
B6: CD8B186 (antibody, human IgG1, kappa, V domains shown)
VH: QVQLQQSGAELAKPGASVKMSCKASGYIFTSYWMHWVKQRPGQGLEWIGNINPSSGYAVYNQKFKDKATLTADQSSSTAYIQLNSLTSEDSAVYYCARRVFYGDSWFAYWGQGTSVTVSS
VL: DVQMIQSPASLSASVGETVTITCRASGNIHNYLAWYQQKQGKSPQLLVYNAKTLADGVPSRFSGSGSGTQYSLKINSLQPEDFGSYYCQHFWSTTWTFGGGTKLEIKR
notes: Full-length human IgG1, kappa
B7: CD8B192 (antibody, human IgG1, kappa, V domains shown)
VH: QVQLQQSGPVLVKPGASVKMSCKASGYTFTDYYMNWVMQSHGKSLEWIGVINPYNGGTTYNQRFTGKATLTVDKSSSTAYMELNSLTSEDSAVYYCARNYGAMDSWGQGTSVTVSS
VL: B6 VL with V2I, I5T, Y49S, S63G, S93I, T95P, W96P, G100A, K103R
notes: Full-length human IgG1, kappa
B8: CD8B362 (antibody, human IgG1, kappa, V domains shown)
VH: EVKLVESGAELVKPGASVKLSCTASGFNIKDTYMHWVKQRPEQGLEWIGRIDPANGHTKFDPKFQGKATITADTSSNTAYLQLSSLTSEDTAVYYCAIRFAYWGQGTLVTVSA
VL: DIQMTQSPSSLSASLGDRVSLTCRASHEISGYLSWLQQKPDGTFKRLIYAASTLDSGVPKRFSGSRSGSDYSLSISSLESEDFADYYCLQYSSYPYTFGSGTKLEMKR
notes: Full-length human IgG1, kappa
B9: CD8B250 (antibody, human IgG1, kappa, V domains shown)
VH: QVQLKESGPGLVAPSQSLSITCTVSGFSLSNYVVHWVRQSPGKGLEWLGVIWTDGSTDYNAAFISRLSISKDNSKSQVFFKMNSLQADDTAIYYCARNNGYFPAFFAYWGQGTLVTVSA
VL: DIVMTQSQKFMSTSVGDRVSVTCKASQNVDTDITWYQQKPGQSPKALIYSASYRYSGVPDRFTGSGSGTDFTLTITNVQSEDLAEYFCQQYNSYPLTFGSGTKLEMKR
notes: Full-length human IgG1, kappa
B10: 75110_01K10A (antibody, V domains shown)
VH: EVQLVESGGALVQPGGSLRLSCAASGFTFRNYDMHWVRQATGKGLEWVSTIGTAGDTYYPGSVKGRFTISRENAKNSLYLQMNSLRAGDTAVYYCARGGDYYYGMDVWGQGTTVTVSS
VL: EIVLTQSPDTLSLSPGERATLSCRASQSLSSVYLAWYQQKPGQAPRLLIYGASSRATGIPDRFSGTGSGTDFTLTISRLEPEDFAVYYCQQYGSSPFTFGPGTKVDIK
notes: Tested as antibody purified from AlivaMab Mouse hybridoma supernatant (captured by anti-mouse IgG Fc)
B11: 75110_05F19A (antibody, V domains shown)
VH: B10 VH with A10G, R30S, M34V, A40P, D100Y, Y101D, M105L
VL: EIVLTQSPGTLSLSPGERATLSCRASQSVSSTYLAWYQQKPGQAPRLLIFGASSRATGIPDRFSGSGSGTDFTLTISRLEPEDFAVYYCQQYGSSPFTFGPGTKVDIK
notes: as for B10
B12: 75110_02I18A (antibody, V domains shown)
VH: B10 VH with L4V, A10G, R30S, N31S, D100Y
VL: B10 VL with D9G, L29V, V32S, A44S, Y50H, F63V, T66S
notes: as for B10
B13: 75110_04P06A (antibody, V domains shown)
VH: B10 VH with A10G, R30S
VL: B10 VL with T66S, S77N, A85V
notes: as for B10
B14: 75110_03I23A (antibody, V domains shown)
VH: QVQLQESGPGLVKPSETLSLTCTASGGSITSYYWNWIRQPAGKGLEWIGRIYTSGSTNYNPSLKSRVTMSVDTSKNQFSLKLSSVTAADTAVYYCARDPGYSDAFNIWGQGTMVTVSS
VL: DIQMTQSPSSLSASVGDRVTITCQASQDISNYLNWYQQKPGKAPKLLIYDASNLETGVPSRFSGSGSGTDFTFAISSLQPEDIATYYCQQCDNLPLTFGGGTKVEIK
notes: as for B10
B15: 75110_01C18A (antibody, V domains shown)
VH: EVQLVESGGGLIQPGGSLRLSCAASGFTVSSNYMNWVRQAPGKGLEWVSVIYAGDNTYSADSVKGRFTISRDNSNNTLCLQMNSLRAEDTAVYYCAREGGTTGAFDIWGQGTMVTVSS
VL: DIQMTQSPSSVSASVGDRVTITCRASQGINSWLAWYQQKPGKAPKLLIYAASSLQSGVPSRFSGSGSGTDFTLTISSLQPEDFATYYCQQGNSFPYTFGQGTKLEIK
notes: as for B10
B16: 75110_04G02A (antibody, V domains shown)
VH: not shown
VL: DIVMTQSPDSLAVSLGERATINCKSSQSVLYSSNNKNYLAWYQQKPGQPPKLLFYWASARESGVPDRFSGSGSGTDFTLTISSLQAEDVALYYCQQYFGSFPTFGQGTKLEIK
notes: as for B10
B17: 75110_05A11A (antibody, V domains shown)
VH: EVQLVESGGGLVKPGGSLTLSCAASGFTFSNTWMSWVRQAPGKGLEWVGRIKSKIDGGTTDYAAPVKGRFTISRDDSKNTLYLQMNSLKTEDTAVYYCTTSGTYSSGWGLFDYWGQGTLVTVSS
VL: DIQMTQSPSSLSASVGDRVTITCQASQDISNYLNWYQQKPGKAPKLLIYDTSNLEAGVPSRFSGSGSGTHFTLTISSLQPEDIATYYCQQYDNLPFTFGGGTRVEIK
notes: as for B10
B18: 75110_05G15A (antibody, V domains shown)
VH: QVQLQESGPGLVKPSQTLSLTCTVSGGSISSGGYFWSWIRQHPGKGLEWIGCIYYSGSTYYIPSLKSRVTISVDTSKNQFSLKLRSVTAADTAVYYCARDGYDYWYFDLWGRGTLVTVSS
VL: not shown

Biological target: T1, human CD8 on human pan T cells (CD4-negative population) (human, UniProt P01732 22-235; P10966 22-210)
T1 construct: whole, on cells; Target is CD8 as it stands on primary human pan T cells
T1 sequence (P01732 22-235, chain 1 of 2): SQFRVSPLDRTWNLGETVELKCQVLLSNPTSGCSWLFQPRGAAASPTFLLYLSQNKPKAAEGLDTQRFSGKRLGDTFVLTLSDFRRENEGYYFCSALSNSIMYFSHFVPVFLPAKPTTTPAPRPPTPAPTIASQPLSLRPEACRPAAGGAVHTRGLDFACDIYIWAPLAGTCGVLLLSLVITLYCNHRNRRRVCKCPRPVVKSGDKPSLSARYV
T1 sequence (P10966 22-210, chain 2 of 2): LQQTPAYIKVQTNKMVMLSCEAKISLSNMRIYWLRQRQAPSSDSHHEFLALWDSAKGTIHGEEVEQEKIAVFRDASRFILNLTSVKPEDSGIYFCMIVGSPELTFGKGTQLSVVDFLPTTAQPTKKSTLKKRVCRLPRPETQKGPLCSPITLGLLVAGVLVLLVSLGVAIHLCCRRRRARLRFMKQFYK
Assay: flow cytometry, 20 nM antibody on human pan T cells, A647 anti-human IgG Fc; geomean ratio in CD4-negative population

Row | Cell Binding to Human PanT Signal/Background (of CD4 negative population) [signal/background] | Binder
1 | 20 | B1
2 | 23 | B2
3 | 1 | B3
4 | 8 | B4
5 | 44 | B5
6 | 36 | B6
7 | 22 | B7
8 | 4 | B8
9 | 61 | B9

Biological target: T2, Rhesus macaque CD4-HIS (Acro Biosystems, Cat. CD4-C52H7) (rhesus macaque, UniProt P16003 26-390)
T2 construct: Bought reagent; also called Rhesus CD4; rhesus CD4-HIS; not shown: His tag
T2 sequence (P16003 26-390 limits assumed): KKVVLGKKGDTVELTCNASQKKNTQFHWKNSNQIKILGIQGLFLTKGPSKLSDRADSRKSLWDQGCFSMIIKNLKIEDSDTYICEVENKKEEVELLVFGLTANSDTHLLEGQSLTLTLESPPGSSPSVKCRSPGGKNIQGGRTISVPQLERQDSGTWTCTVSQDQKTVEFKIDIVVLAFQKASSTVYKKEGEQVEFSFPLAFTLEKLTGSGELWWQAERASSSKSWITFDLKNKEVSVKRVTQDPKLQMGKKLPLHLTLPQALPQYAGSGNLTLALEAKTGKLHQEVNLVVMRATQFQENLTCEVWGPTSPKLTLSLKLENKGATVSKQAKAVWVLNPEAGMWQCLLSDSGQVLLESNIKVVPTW
Assay: BLI Octet, mAb on anti-mouse Fc sensor, rhesus CD4-HIS 25-100 nM

Row | binding result | Binder
10 | no binding (tested: 100 nM) | B10
11 | no binding (tested: 100 nM) | B11
12 | no binding (tested: 100 nM) | B12
13 | no binding (tested: 100 nM) | B13
14 | no binding (tested: 100 nM) | B14
15 | no binding (tested: 100 nM) | B15
16 | no binding (tested: 100 nM) | B16
17 | no binding (tested: 100 nM) | B17
18 | no binding (tested: 100 nM) | B18
